Results published in publication PMC8583942, “An Engineered Thermostable Laccase with Great Ability to Decolorize and Detoxify Malachite Green” (International Journal of Molecular Sciences, 2021).

Substrate: CCn1c(=NN=c2sc3cc(S(=O)(=O)O)ccc3n2CC)sc2cc(S(=O)(=O)O)ccc21
Test: purified protein
Assay type: biochemical, Geothermobacter hydrogeniphilus
Settings: 1 mM CuSO4, 20 mM acetate pH 4.0, 60 °C

B1: Ghlac WT (Geothermobacter hydrogeniphilus) (protein)
chain: MKMARNGKISYLEPEWITGSLRAGFTTRNGGISRAPYNSLNLGLNTEDPRPNVEGNRSTLVRAFGLEVHQLLTVRQVHGNNILVVDEPNPDLSHFQQVECDAIISNQPGMMIGVLVADCYPVLLAAPAQGVVAAVHVGWRGAVAQIIQRTVDALQEQFGVCPEELLAAVGPGIGAHAYEVDRPVRDQFRKAGLPWAGVAEESRLGHWKLDLRETCRRQLLTAGVVRTHIDLAEECTCCHRELLFSHRRDNGRTGRQLGFILLT
notes: codon-optimized in pET-28a(+) NcoI/XhoI; E. coli BL21(DE3)
Km: 1300 µM
kcat: 2.095 s⁻¹
